Columns and labels:
[1] = biological target: SIRK1-ECD-HA-StrepII (extracellular domain of SIRK1) (Arabidopsis); test: MST
[2] = biological target: SIRK1-ECD together with co-receptor QSK1-ECD (about 20 nM each) (Arabidopsis); test: MST

Kd [1]: 1440 nM
Kd [2]: 57 nM
Binder: VSGNVAARKGKQQTSSGKGGGTN [PEP7 (Elicitor Peptide 7), synthetic, untagged]
